Experiments:
[1] = target: T1, human EGFRvIII-hFc protein (human, UniProt P00533 25-645); test: ELISA, coated EGFRvIII-hFc, antibody 1 nM
T1 construct: extracellular domain; made in HEK293 cells, purified on protein A; also called immunogen A; hFc-tagged EGFRvIII protein; not shown: human IgG Fc fragment (hFc) of the pCpC vector
Protocol: (§1) The purified immunogen A (EGFRvIII-hFc) obtained in example 1 (for the preparation method, see step (I) in example 1) is diluted with PBS to a final concentration of 1.0 μg/mL, and then added to a 96-well ELISA plate at 100 μl/well. The plate is sealed with a plastic film and incubated at 4° C. overnight. The next day, the plate is washed twice with a plate washing solution [PBS+0.01% (v/v) Tween20], and added with a blocking solution [PBS+0.01% (v/v) Tween20+1% (w/w) BSA] for blocking 2 hours at room temperature. The blocking solution is discarded, and the purified EGFRvIII antibody obtained in example 2 is added at 100 μl/well. The plate is incubated for 2 hours at 37° C., and then washed 3 times with the plate washing solution [PBS+0.01% (v/v) Tween20]. The plate is added with an HRP (horseradish peroxidase) labeled secondary antibody (purchased from Sigma), incubated at 37° C. for 2 hours, and then washed 3 times with the plate washing solution [PBS+0.01% (v/v) Tween20]. The plate is added with 100 μl of TMB substrate/well, incubated for 30 minutes at room temperature, and then added with 100 μl of stopping solution (1.0N HCl)/well. A450 nm value is read using an ELISA plate reader (SpectraMax 384plus, purchased from Molecular Device), and the results are shown in FIG. 6 and table 10.

[2] = target: T1, human EGFRvIII-hFc protein; test: ELISA, coated EGFRvIII-hFc, antibody 10 nM
Protocol: as §1

[3] = target: T1, human EGFRvIII-hFc protein; test: ELISA, coated EGFRvIII-hFc, antibody 0.1 nM
Protocol: as §1

[4] = target: T1, human EGFRvIII-hFc protein; test: ELISA, coated EGFRvIII-hFc, antibody 100 nM
Protocol: as §1

[5] = target: T1, human EGFRvIII-hFc protein; test: ELISA, coated EGFRvIII-hFc, antibody 0.01 nM
Protocol: as §1

[6] = target: T1, human EGFRvIII-hFc protein; test: ELISA, coated EGFRvIII-hFc, antibody 0.001 nM
Protocol: as §1

[7] = target: T1, human EGFRvIII-hFc protein; test: ELISA, coated EGFRvIII-hFc, antibody 0.0001 nM
Protocol: as §1

[8] = target: T2, wild-type EGFR protein on the surfaces of A431 tumor cells and normal human primary hepatocytes (human, UniProt P00533 25-1210); test: FACS, A431 tumor cells
T2 construct: whole, on cells; Same protein on two cell types; also called human epidermal growth factor receptor; her-1
Protocol: (§2) The preparation of U87MG-EGFRvIII required for FACS detection is as described in the preparation of the immunogen B in example 1. Normal human primary hepatocytes are purchased from BioreclamationIVT, and A431 tumor cells are purchased from ATCC. The recovered hepatocytes are directly used for FACS detection, and the recovered U87MG-EGFRvIII and A431 cells are subjected to an expanded culture to 90% confluence in a T-75 cell culture flask; the medium is sucked out, and the cells are washed twice with a HBSS buffer (Hanks Balanced Salt Solution) (purchased from Invitrogen), and then treated with an enzyme-free cell dissociation solution (Versene solution: purchased from Life Technology) and collected. The cells are washed twice with the HBSS buffer and are counted, and then the cells are diluted with the HBSS buffer to 2×10⁶ cells/ml, added with 1% goat serum blocking solution, with the percentage being the mass percentage, and incubated on ice for 30 minutes, and then centrifugally washed twice with the HBSS buffer. The collected cells are resuspended to 2×10⁶ cells/mL with an FACS buffer (HBSS+2% FBS, with the percentage being the volume percentage), added to a 96-well FACS reaction plate at 100 μL/well, then added with 100 μL/well of the purified EGFRvIII antibody (samples to be tested) obtained in example 12, and incubated on ice for 2 hours. The plate is centrifugally washed twice with the FACS buffer, added with 100 μL/well of a 1:1000 diluted fluorescence (Alexa 488) labeled secondary antibody (purchased from Invitrogen), and incubated on ice for 1 hour. The plate is centrifugally washed 3 times with the FACS buffer, added with 100 μL/well of a fixing solution [4% (v/v) paraformaldehyde] to resuspend the cells, and centrifugally washed twice with the FACS buffer after 10 minutes. The cells are resuspended in 100 μL of the FACS buffer, and the results are detected and analyzed by FACS (FACS Calibur, purchased from BD). Data analysis is performed by using the software (CellQuest) to obtain the mean fluorescence intensity (MFI) of the cells. Data is further analyzed by using the software (GraphPad Prism5) to perform data fitting and calculate EC50.

[9] = target: T2, wild-type EGFR protein on the surfaces …; test: FACS, normal human primary hepatocytes
Protocol: as §2

[10] = target: T2, wild-type EGFR protein on the surfaces …; test: FACS, MFI on A431 cells over MFI on normal primary hepatocytes
Protocol: as §2

B1: Murine anti-63A10 (antibody, V domains shown)
VH: QVQLQQSGAELARPGASVKMSCKASGYTFISFTMHWVKQRPGQGLEWIGYINPNSGYTKYNQKFKDKATLTAGQSSSTAYMQLSSLTSEDSAVYYCTRGGGRGFAYWGQGTLVTVSA
VL: DILMTQSPSSMSVSLGDTVTITCHASQDINSNIGWLQQKPGKSFKALIYHGTNLEDGVPSRFSGSGSGADYSLTISSLESEDFADYYCVQYAQFPFTFGSGTKLEIK
notes: murine hybridoma antibody; also called 63A10A7
OD450 nm [1]: 3.42
OD450 nm [2]: 3.76
OD450 nm [3]: 0.8
OD450 nm [4]: 3.71
OD450 nm [5]: 0.17
OD450 nm [6]: 0.09
OD450 nm [7]: 0.08

B2: Murine anti-64F1 (antibody, V domains shown)
VH: QVQLQQSGAELARPGASVKMSCKASGYTFSSYTMHWAKQRPGQGLEWIGYINPSSGYTKYNQKFKDKATLTADKSSSTAYMQLSSLTSEDSIVYYCARGGGRGFAYWGQGTLVTVSA
VL: QIVLTQSPAIMSASPGERVTMTCSASSSVSYMYWYQQKPGSSPRLLIYDTSNLASGVPVRFSGSGSGTSYSLTISRVEAEDAATYYCQQWSSYSLTFGAGTKLELK
notes: murine hybridoma antibody; also called 64F1F8
OD450 nm [1]: 3.51
OD450 nm [2]: 3.76
OD450 nm [3]: 1
OD450 nm [4]: 3.73
OD450 nm [5]: 0.16
OD450 nm [6]: 0.09
OD450 nm [7]: 0.08

B3: Humanized antibody h63A10A7-23 (antibody, human IgG1, V domains shown)
VH: QVQLVQSGAEVKKPGASVKVSCKASGYTFISFTMHWVKQRPGQGLEWIGYINPNSGYTKYNQKFKDKATLTRDTSTSTVYMELSSLRSEDTAVYYCTRGGGRGFAYWGQGTLVTVSS
VL: DILMTQSPSSLSASVGDRVTITCHASQDINSNIGWLQQKPGKAPKALIYHGTNLEDGVPSRFSGSGSGADYTLTISSLQPEDFATYYCVQYAQFPFTFGQGTKLEIK
notes: Human IgG1 constant region, human kappa constant region
mean fluorescence intensity (MFI) [8]: 4000 MFI
mean fluorescence intensity (MFI) [9]: 661 MFI
Selective window (MFIA431/Hepatocytes) [10]: 6 ratio

B4: Humanized antibody h63A10A7-21 (antibody, human IgG1, V domains shown)
VH: QVQLVQSGAEVKKPGASVKVSCKASGYTFISFTMHWVKQRPGQGLEWIGYINPNSGYTKYNQKFKDRVTLTRDTSTSTVYMELSSLRSEDTAVYYCTRGGGRGFAYWGQGTLVTVSS
VL: DILMTQSPSSLSASVGDRVTITCHASQDINSNIGWLQQKPGKSFKALIYHGTNLEDGVPSRFSGSGSGADYTLTISSLQPEDFATYYCVQYAQFPFTFGQGTKLEIK
notes: as for B3
mean fluorescence intensity (MFI) [8]: 7930 MFI
mean fluorescence intensity (MFI) [9]: 568 MFI
Selective window (MFIA431/Hepatocytes) [10]: 14 ratio

B5: Humanized antibody h63A10A7-22 (antibody, human IgG1, V domains shown)
VH: QVQLVQSGAEVKKPGASVKVSCKASGYTFISFTMHWVKQRPGQGLEWIGYINPNSGYTKYNQKFKDKATLTRDTSTSTVYMELSSLRSEDTAVYYCTRGGGRGFAYWGQGTLVTVSS
VL: DIQMTQSPSSLSASVGDRVTITCHASQDINSNIGWLQQKPGKSFKALIYHGTNLEDGVPSRFSGSGSGADYTLTISSLQPEDFATYYCVQYAQFPFTFGQGTKLEIK
notes: as for B3
mean fluorescence intensity (MFI) [8]: 9380 MFI
mean fluorescence intensity (MFI) [9]: 592 MFI
Selective window (MFIA431/Hepatocytes) [10]: 15.8 ratio

B6: Humanized antibody h63A10A7-37 (antibody, human IgG1, V domains shown)
VH: QVQLVQSGAEVKKPGASVKVSCKASGYTFISFTMHWVKQRPGQGLEWMGYINPNSGYTKYNQKFKDKATMTRDTSTSTVYMELSSLRSEDTAVYYCTRGGGRGFAYWGQGTLVTVSS
VL: DIQMTQSPSSLSASVGDRVTITCHASQDINSNIGWLQQKPGKSFKALIYHGTNLEDGVPSRFSGSGSGADYTLTISSLQPEDFATYYCVQYAQFPFTFGQGTKLEIK
notes: as for B3
mean fluorescence intensity (MFI) [8]: 1320 MFI
mean fluorescence intensity (MFI) [9]: 265 MFI
Selective window (MFIA431/Hepatocytes) [10]: 5 ratio

B7: Humanized antibody h63A10A7-26 (antibody, human IgG1, V domains shown)
VH: QVQLVQSGAEVKKPGASVKVSCKASGYTFISFTMHWVKQRPGQGLEWIGYINPNSGYTKYNQKFKDKATLTRDTSTSTVYMELSSLRSEDTAVYYCTRGGGRGFAYWGQGTLVTVSS
VL: DILMTQSPSSLSASVGDRVTITCHASQDINSNIGWYQQKPGKSFKALIYHGTNLEDGVPSRFSGSGSGADFTLTISSLQPEDFATYYCVQYAQFPFTFGQGTKLEIK
notes: as for B3
mean fluorescence intensity (MFI) [8]: 6130 MFI
mean fluorescence intensity (MFI) [9]: 435 MFI
Selective window (MFIA431/Hepatocytes) [10]: 14.1 ratio

B8: Humanized antibody h63A10A7-39 (antibody, human IgG1, V domains shown)
VH: QVQLVQSGAEVKKPGASVKVSCKASGYTFISFTMHWVKQRPGQGLEWIGYINPNSGYTKYNQKFKDRVTLTRDTSTSTVYMELSSLRSEDTAVYYCTRGGGRGFAYWGQGTLVTVSS
VL: DIQMTQSPSSLSASVGDRVTITCHASQDINSNIGWLQQKPGKSFKALIYHGTNLEDGVPSRFSGSGSGADYTLTISSLQPEDFATYYCVQYAQFPFTFGQGTKLEIK
notes: as for B3
mean fluorescence intensity (MFI) [8]: 1960 MFI
mean fluorescence intensity (MFI) [9]: 261 MFI
Selective window (MFIA431/Hepatocytes) [10]: 7.5 ratio

B9: Humanized antibody h63A10A7-38 (antibody, human IgG1, V domains shown)
VH: QVQLVQSGAEVKKPGASVKVSCKASGYTFISFTMHWVRQAPGQGLEWIGYINPNSGYTKYNQKFKDKATLTRDTSTSTVYMELSSLRSEDTAVYYCTRGGGRGFAYWGQGTLVTVSS
VL: DIQMTQSPSSLSASVGDRVTITCHASQDINSNIGWLQQKPGKSFKALIYHGTNLEDGVPSRFSGSGSGADYTLTISSLQPEDFATYYCVQYAQFPFTFGQGTKLEIK
notes: as for B3
mean fluorescence intensity (MFI) [8]: 1060 MFI
mean fluorescence intensity (MFI) [9]: 254 MFI
Selective window (MFIA431/Hepatocytes) [10]: 4.2 ratio

B10: Humanized antibody h63A10A7-24 (antibody, human IgG1, V domains shown)
VH: QVQLVQSGAEVKKPGASVKVSCKASGYTFISFTMHWVKQRPGQGLEWIGYINPNSGYTKYNQKFKDKATLTRDTSTSTVYMELSSLRSEDTAVYYCTRGGGRGFAYWGQGTLVTVSS
VL: DILMTQSPSSLSASVGDRVTITCHASQDINSNIGWLQQKPGKSFKALIYHGTNLEDGVPSRFSGSGSGTDYTLTISSLQPEDFATYYCVQYAQFPFTFGQGTKLEIK
notes: as for B3
mean fluorescence intensity (MFI) [8]: 9860 MFI
mean fluorescence intensity (MFI) [9]: 502 MFI
Selective window (MFIA431/Hepatocytes) [10]: 19.6 ratio

B11: Humanized antibody h63A10A7-25 (antibody, human IgG1, V domains shown)
VH: QVQLVQSGAEVKKPGASVKVSCKASGYTFISFTMHWVKQRPGQGLEWIGYINPNSGYTKYNQKFKDKATLTRDTSTSTVYMELSSLRSEDTAVYYCTRGGGRGFAYWGQGTLVTVSS
VL: DILMTQSPSSLSASVGDRVTITCHASQDINSNIGWYQQKPGKSFKALIYHGTNLEDGVPSRFSGSGSGADYTLTISSLQPEDFATYYCVQYAQFPFTFGQGTKLEIK
notes: as for B3
mean fluorescence intensity (MFI) [8]: 7360 MFI
mean fluorescence intensity (MFI) [9]: 433 MFI
Selective window (MFIA431/Hepatocytes) [10]: 17 ratio
